This note sets out measurements from doi:10.1101/2024.11.16.623920.

Holding throughout (test): FRET or BRET
Experiment [1] deals with CaGpi2-His6 (C. albicans Gpi2, GPI-GnT subunit, tagged with His6 at the C-terminus) (C. albicans) (UniProt Q5A6L6).
Experiment [2] has as its target CaGpi8 (C. albicans Gpi8, subunit of the GPI-transamidase) (C. albicans (endogenous in the cells)).
Experiment [3] deals with CaGpi3 (C. albicans Gpi3, GPI-GnT subunit) (C. albicans (endogenous in BWP17-derived cells)).

Turning to “CaRas1 (C. albicans Ras1) (natural protein)”, the spatial distance r (AP-FRET) in experiment [1] worked out at 5.3 nm.

B1: CaArv1-V5 (C. albicans Arv1 tagged with V5 at its C-terminus) (natural protein)
chain: MICIECGYSNIDCLYSKYKSDYIKLSVCPECNKIADKYIEYDSVILFLDILLLKRQAYKHLAYNLTEMEMEIGSSTNFHINDNTNFKFFHTYRKLMKLIFMILSFEVYLTWANEEKLLIHSQLINLIFNQSVVYQYLFFIIKSSLENLILNLSLQLILRLGYKWGQGPQKINGNIRDKELFGYKTSVLLVTTMVSGSIRLFPILMFIWPYDNISITKPLINLIAFINIVEALRVVTSLGYVELILSLAFSIVIRNIVSKSLLVLIVRLFLDFNFTEVYYNEMYQLYSQIQTYIRWI
Consider B1, for which the spatial distance r (AP-FRET) in experiment [2] was more than 10 nm; in experiment [3] it was 6.3 nm.
